Assay: soluble on expression in E. coli; label from the status in PepcDB or PDB records

| Sequence | soluble on expression in E. coli |
| --- | --- |
| MYEGLLIDIDYLLNVVKELKINFDKKIKTLNLLIERNIPIVLYTENNKEYVDTIMKYLKIKEPAIIVEGAQIYSPFDLSYEAVFPLSINTVCKLGNWAMDRKMDMSISTDKKVIDYSEWLKELRQVNYKNAGDKLPSAVKVDICMKNDDKRIELLNFIGKNNLECYAHMYLNHVACINSIVDKGNTLKYLANKKKWDIKKFAMIGDYSKDTSIFDEVGF | not soluble |
| MEVEAFAHSVAPLAPRLKRVAYSILDDEEAAADVSQEALMRLWINRERLGGYDSIEAVAVTTARRIALDMLRKEGRMEPLPDDLPFSDHAPTPQGVLEQSETMRLVEAAIEALPPLQRMTFRLKEIEGYESEVIARLVGVKVEAVYTNLSRARRALRTALALQLKR | not soluble |
| MGSDKIHHHHHHMRFGLDLGTTRTIAAAVDRGNYPIVTVEDSLGDTHDFIPSVVALKADRIVAGWDAIEVGQDHPSFVRSFKRLLSEPNVTEATPVYLGDHVHPLGAVLEAFAENVVTALRAFQTQLGDTSPIEVVIGVPANSHSAQRLLTMSAFSATGITVVGLVNEPSAAAFEYTHRHARTLNSKRQAIVVYDLGGGTFDSSLIRIDGTHHEVVSSIGISRLGGDDFDEILLQCALKAAGRQHDAFGKRAKNTLLDESRNAKEALVPQSRRLVLEIGDDDITVPVNKFYEAATPLVEKSLSIMEPLIGVDDLKDSDIAGIYLVGGGSSLPLVSRLLRERFGRRVHRSPFPSGSTAVGLAIAADPSSGFHLRDRVARGIGVFREHDSGRAVSFDPLIAPDTDSATVAKRCYKAVHNIGWFRFVEYSTVSEDGSPGDISLLSEIKIPFDSSITDVDATEISRFDGPEVEETITVNDNGVASISIKILGGVTVEHTI | not soluble |
| MSLKVKSIKAITLSMPFSHGGKKVIFHGKEWKSLEFNLIRLETDKGIVGWGEAFGFSSWKAVRVAIEEMVAPMIIGKDMSNIPELLLNLQKSLHLFGRYGITMFAISGVEIALWDAFGKEKNKPVHELLGKKNNDIFKAYSSLFRYGDPKIIEQKCKQSLDDGYRAIKLHEIENNCIEAGRKGTGDLPMMLDTNCPWTYEQTLAKKDFLKSMNLTWLEEPIYPPEDYQTLAKLNKELGIPLACGENACTEYEFKSMIDHKAVSFVQPSVIKVGGIYEMFKIINIAEDKNISVMPHTAYFGPGFLATLQLAALMKKETYIERFYLDIDEEFYPNFKKALNGKYNLPKGPGLGIDLDYKRLSKYEIEGHHHHHH | soluble |
| MVKHIWDSERAAQLPKGVEELVYRSNLIGSDRTVCNWGGGNTSMKTTEKDFRGREIEVMWVKGSGSDLATMKAHNFSGLKLDDIRPLIKRDQMPDEEMVDYLSHCMIDSKHPRPSIETLLHAFLPYKHVDHTHPDAIISICCADNGKQIAEDIYGNRFVWVPYVRPGFTLSKMIAEGVANNPHAELVLMEKHGLVTWGETSETCYQKTISIIQEAEQYINDRINQHEVFGGKRYQPLPEDKRKQILAGIMPVIRGAVSEEKKMILSYDDHDDVLEFVNSVQAPALSQIGAACPDHLVHTKRVPLYIDWNPETQDVHKLADLIKSGVETFTSEYQAYFTRNQQDGDQIFESAPRVILIPGIGMVNTGKSYAMSKVSGALYRRAIAVMKGATALGQFVSLHENESYHVEYWPLELYKLTLAPPEAEFSRKVALITGGAGGIGSAACRRFAAEGGHVIVADLNIEGAQKIAGEINDAYGKGRAMAVKMDVTKEEDVQSAFERAALAYGGIDIVVNNAGLATSSPFDETSLKEWNLNMNVLGTGYFLVAREAFKQMKHQNRGGSMVFVGSKNSVYAGKNASAYSSVKALETHLARCIAAEGGEFGIRVNSVLPDAVLQGSAIWGSSWREERAAAYGIEPDQLEEHYRKRTALLVNIYPEDIAEAIAFFASSKAEKTTGCMITVDGGVPAAFTR | not soluble |
| MNGNHSAPAIAIAVIDGCDGLWREVLLGIEEEGIPFRLQHHPAGEVVDSAWQAARSSPLLVGIACDRHMLVVHYKNLPASAPLFTLMHHQDSQAHRNTGNNAARLVKGIPFRDLNSEATGEQQDE | soluble |
| AIAAEPIELLCWGGDWDLPSVQTDSLTVLAYAKFAGAELTVKFVDWTWRTITASVPQIHYEGTTVTEPTQILNFLRKQRFNADFELTAKQGADTMAYIALLEEKLRPALLHTFWVDAENYANLTRPWFTSHSPFPLNFFVPGRQASLALSRILLTKAESPLLNITEVEGKIYSEAKECLNLLSHRLGNFNFFFGDTPTSLDAFVFGHIAPLIKAPLPSGQLQKHLNQLDNLCQFCNTILKNYFTDATAEKRMDCSPTVAHDFVDANLQKLTQLVNKESNLIEKMDDNLRSSPQHRPHRHEAKPSAPASDRNSTPA | soluble |
| MSKRNTQQRRHNIIADLNAQGEVSVDSLAKQFDTSEVTIRKDLAALETSGLLLRRYGGAVALPSEITEAKVDQLSQQKLHIAKKAAMLIRDHNRIIIDSGQTTSALVSELANKKGLVVMTNALSIANEIHALENEPTLLMTGGTWDATSEAFQGQVAEQVLRSYDFDQLFIGADGIDIKRGTTTFNELIGLSRVMAEVAREVIVMVESAKITKKIPNLELNWQQIHTVITDDGLSEEMRIALTEQGVKLIIAKGLEHHHHHH | soluble |
| MAGDPMGSGESKANTAETPEVLDVKLTGPEKVNPGESAAYEAAVSYGDEAVTDADEVEFEVWKEGEKDASQMFKVKQEKGVYRLETTFKEDGVYTVQSHVTAKKQHSMPTLKVQVGDADAASNQSEEEHSHHHLEHHHHHH | soluble |
| MEDIENIEEDEYGFSRNYFLAKELGGASKRSAHKLSDIHIVDEQELRETASTIEMKHSKEISELMSDYKTMYSKWVFELRCGFGLLMYGFGSKKALVEDFASASLTDYSVVVINGYLPSVNLKQVLLALAELLSELLKCKRKSSGSLSKGQETFPSRSMDDILSFLHGPQSGDKDCFICVVVHNIDGPALRDPESQQTLARLSSCSHIRLVASIDHVNAPLLWDKKMVHKQFNWLWHHVPTFAPYNVEGVFFPLVLAQGSTAQTAKTAAIVLQSLTPNGQNVFKILAEYQLSHPDEDGMPTDDLYSASRERFFVSSQVTLNSHLTEFKDHELVKTKRNSDGQECLNIPLTSDAIRQLLLDLNQ | not soluble |
| MSETLDQWRAGLTLGFAPGHAGRTVLRERAHYGPMLVQRALYPEGPQVCHVAILHPPSGIAGGDALEIRVDVAGGARAALTTPGATRWYKSNGRQASQDVHLRVAAGGRLDWLPLESIFFEEADALARNRIQLESGAAAIGWDLIQLGRVNQSGHWSQGRLHTATELYVDGRLLWVDQGLVGAQDDVRRQVSGLAGFPVHAALWSFGPRLDAEQNEELAGLMPWSDTLRGAATTMPYDATQSLCLVRCLGVHMEDVRAVMTDAWAYLRPRVLDTPAVVPRLWATKLAAALEHHHHHH | not soluble |
| MAHHHHHHMDPSVSLEGIVDLTASNFDEHVGKGVPALVEFYAPWCGHCKKMVPEFEKVGQAVKTARDKVLVGKVDATQNRDLAERFGVNGYPTILFFPADSQTKQQYSEAREAAAFLSFLNRQVPGLNIGVPHEHTYAVELTKRNFDAVVMDEAKDALVMFYAPWCGHCKKLHPVFERLATAFKEEADIVIGKLNADDASNGAVRNRYKVDGYPTLAFFQKRSKSEPQYYSGGRSLEELVEYVNERTGKNRLPSGDLSEKVGVNDELSKVLRDMMLKEKSVDEKKQYLEKVKKAAADLTGVEAVHYPRIAEKILQLGAEYVEMELGRIARLKQGDVKGEKRDMLTIRNNILASLKDE | not soluble |
| EDLGYFCVDNLPPSLLPKFLELMKESNSKMSKVALVMDLRGREFFDRLIEALDEMAENPWITPRILFLDAKDSILVTRYKETRRSHPLAATGLPLEGIALERELLEELKGRSQIIYDTSDMKPRDLREKIVKHFATNQGETFTVNVMSFGFKYGIPIDADLVFDVRFLPNPYYIESMRPLTGKDKEVSSYVMKWNETQKFNEKLIDLLSFMLPSYKREGKSQVVIAIGCTGGQHRSVTLAENLADYFKKDYYTHVTHRDIEKR | not soluble |
| MSLDNAMRNIFNGMMTTTSPASFETATRTGVVGGSFSYRTTNVNTNLVSMSFPKASVGCNGIDVFLGSFSMINGDQLVQVARGIAQGAAIYAFNVAVSAICADCAATINDIQNKLQALNKFAKDSCNATYSFLTENVGPPSQFANAVSSGPASMLGTLNGLLPDFGSSMTKSPETVTSQVKAKDPEEFAEKFSGNLFYMSFMDIDKGSMNIGGVTELSGYRLAEQLMSLVGTVIINWDAKGEKAGMEVRPSTMTVSDFIMGPPAGGSIKMLKCSPAPDPASARKSQCLVMSEVTDGGFKGLKDTISDLLIQVQTKAISDVRISDDELRIISYIGIPTILDSLQTFDVPEGYAYIQDISAIAATSLVINMLRQVEAKISAMNIPSESLSGRRQDLTRLSENLTNQVKAAYELTRSQVGNSSDVISAWDDRRLKRKAFMESLRGTGNEGHHHHHH | not soluble |
| MGSDKIHHHHHHMPKIWTERIFDDPEIYVLRIDDDRIRYFEAVWEIPEGISYNAYLVKLNGANVLIDGWKGNYAKEFIDALSKIVDPKEITHIIVNHTEPDHSGSLPATLKTIGHDVEIIASNFGKRLLEGFYGIKDVTVVKDGEEREIGGKKFKFVMTPWLHWPDTMVTYLDGILFSCDVGGGYLLPEILDDSNESVVERYLPHVTKYIVTVIGHYKNYILEGAEKLSSLKIKALLPGHGLIWKKDPQRLLNHYVSVAKGDPKKGKVTVIYDSMYGFVENVMKKAIDSLKEKGFTPVVYKFSDEERPAISEILKDIPDSEALIFGVSTYEAEIHPLMRFTLLEIIDKANYEKPVLVFGVHGWAPSAERTAGELLKETKFRILSFTEIKGSNMDERKIEEAISLLKKELE | soluble |
| MREKFYEKYYYAKSDIEGQDGGVVTAFLKYLLENGKIDGAIVVGDECWKPVSLVVQNAEDLLKTAKSKYAISTLDALRKAGEMGLEKVALEHHHHHH | not soluble |
| MAHHHHHHMPTNAAQALEKLVPGRLLQLADNGTPTIVTPLGNEGSLNALIHAYKGKGYLPYFTHAVKAAQRSLVNELRAAGVEVPNGAEASHLEGVCGVHCRDEASCSHIIPDEHITATLYGEDTDDTRMIVACDPIQTKLRDDCVECFPRVNKVSGWEELVVRVHLFYPNTVPCMSVQDRRARLVTQKQFVPKNARTLQGYHVFHYAKRGSSVRTPHCESMFPYTPKTTESKGFTRENRCTAITVESVFVRDPARQQRPFYAEDAGQARVYFSYLRVDAFVTDDELVEHFPLESMDVAAMPAFTDNRYVEKYHVLVRLYLLAHDQGWTATQPHGCPHPLGDRVGLPVLFRSCATEVIVPDACSHDSQLLLRQRLLPDVEMQVTRFCFRRIVSEVLRQRVVAAAADTPECCIPVVCYMPYSDRVPVFTDKQVGVLARLYPHLGIRRPTSRREWADLSRTLYQHCISLFDILAAVGVPLRDAHGAVIDTDAYVPYTADMADDYFLVIANRPLRDYTCVTNQRWLCEQLLLPDHRPPISARAFAAWVRYWNAMAQLKHELEKQVTLDTVSAHLGLRLPAGKTGQRAACLVNGLVTDAKGGLIFPKLGGRRFRDREHVGALLPGAPVLYSFWVDGKLQFTYVRMPMRFVRGLPLKQVNGQRPVQSVIAAGGAPANRGDGTQRGGGQVGEERRANVAIHA | not soluble |

Source: the DeepSol protein solubility set
